Measured values: patent publication US20220390449A1, “NEW S[…] FOR THE LATENT FORM OF TOXOPLASMOSIS” (INSERM (INSTITUT NATIONAL DE LA SANTÉ ET DE LA RECHERCHE …, priority 2019, published 2022)
“Also recorded” adds a separate entry of the source.

What was measured:
BCLA positive sera = test: Epitope mapping of BCLA repeat and rBCLA (dot blot peptide assay); type: binding; conditions: 59 peptides of 15 aa covering res 1089-1275; human sera 1/400
Description: Epitope mapping of BCLA repeat and rBCLA. Dot blot peptide assays were custom synthetized by JPT Peptide technologies on cellulose membranes with N-Acetyl moieties on the N-terminus. Two sets of membranes were screened: 1) covering the rBCLA region (res 1089-1275) with a total of 59 peptides, each 15 aa long with an overlap of 12 and an offset of 3; 2) covering repeat 4 (res 446-493) with a total of 18 peptides, each 15 aa long with an overlap of 12 and an offset of 3. Dot blot assays were performed as described by the manufacturer. Briefly, the membranes were first activated 5 min in 100% ethanol then washed 3 times 3 min in DPBS-tween. Blocked O.N at 4° C. in DPBS-Tween 0.5% powdered milk then washed again 3*3 min in DPBS-tween. Tested sera were diluted to 1/400 in DPBS-tween 0.1% BSA and incubated for 3 h at RT with the membrane. Following a 3*3 min DPBS-tween wash, membranes were incubated with anti-IgG peroxidase coupled Ab (Sigma A0170) diluted to 1/100 000 for 2 h at RT. […] Dot intensity was integrated using ImageJ. […]. For data analysis of independent dot blots, integrated intensities from every peptide dot [I(p)] were normalised into enrichment factors Fe(p) using the baseline integrated intensity of peptide 59[I(p=59)] which never reacts with any sera. The following can be expressed with the following equation: […]
In order to increase the reactivity score over several independent positive sera blots symbolised as (+), Fe(p) enrichment scores were summed with each other and to subtract the non-specific reactivity, the same sum was performed on the same number of negative sera peptides, symbolised as (−) and subtracted. Peptide reactivity scores can be expressed though the following equation:
Rs(p)=[Σ(Fe(p))^(+)−Σ(Fe(p))^(−)]

[1] = molecular target: T1, His rBCLA (HisTag-rBCLA: C-terminal domain of BCLA, res 1089-1275, with a TEV cleavable N-terminal His-tag) (Toxoplasma gondii); test: ELISA, serial dilution of purified VHH on coated His rBCLA (200 ng/well), anti-flag detection
T1 construct: also called Cter-BCLA; recombinant rBCLA
T1 chain: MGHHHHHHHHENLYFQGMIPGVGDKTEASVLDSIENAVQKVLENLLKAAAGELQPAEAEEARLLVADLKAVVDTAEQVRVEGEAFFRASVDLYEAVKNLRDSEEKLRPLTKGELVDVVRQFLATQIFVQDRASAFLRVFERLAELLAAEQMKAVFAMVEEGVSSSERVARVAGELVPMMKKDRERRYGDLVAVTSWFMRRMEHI

[2] = molecular target: T1, His rBCLA (HisTag-rBCLA: C-terminal …); test: ELISA on coated His rBCLA (conclusion of Example 2)
[3] = molecular target: T1, His rBCLA (HisTag-rBCLA: C-terminal …); test: phage display selection on His rBCLA and ELISA, as retold in the description
[4] = molecular target: T1, His rBCLA (HisTag-rBCLA: C-terminal …); test: ELISA, periplasmic extract on coated His rBCLA
His rBCLA = test: ELISA binding of purified VHH to immobilized His rBCLA; parameters: species or system Toxoplasma gondii; conditions: 200 ng/well antigen, serial dilution of VHH
Experimental: The binding of purified VHH to immobilized His rBCLA was analyzed by ELISA. A MaxiSorp plate was coated with 200 ng/well antigen overnight at 4° C. in PBS. After blocking the wells with 4% MPBS, a serial dilution of the VHH was added to the coated wells and incubated for 1 hour at room temperature. After washing unbound VHH, bound VHH were detected using a mouse-anti-flag (clone M2) and donkey-anti-mouse coupled to HRP. Binding was quantified by measuring colorimetric reaction of OPD+H2O2 at 490 nm. ERB-1G6, ERB-1B11 and ERB-1A12 show a subnanomolar apparent affinity to immobilized His rBCLA. ERB-1F1 and ERB-1F2 show a low nanomolar affinity. ERB-1H4 and ERB-1D7 show a […] apparent affinity to His rBCLA.

QPAEAEEARLLVADL (Synthetic peptide 13 of rBCLA)
peptide reactivity (total reactivity score), rBCLA region array (BCLA positive sera): stronger zones of reactivity

KLRPLTKGELVDVVR (Synthetic peptide 30 of rBCLA)
peptide reactivity (total reactivity score), rBCLA region array (BCLA positive sera): stronger zones of reactivity

EGEAFFRASVDLYEA (Synthetic peptide 22 of rBCLA)
peptide reactivity (total reactivity score), rBCLA region array (BCLA positive sera): stronger zones of reactivity

B1: VHH ERB-1G6 (VHH)
VHH: EVQLVESGGGLVQAGGSLGLSCAASGRPGRIFTRNSMAWFRQAPGKEREFVASINWSGTSTSYADSVKGRFAISRDNDKNTVYLQMNSLKPEDTAVYYCAADSALYGSMHKTPADYEYWGQGTQVTVSS
notes: also called VH ERB-1 G6; not shown: C-terminal FLAG and His-tag from vector pMEK222
binding result [1]: binds

B2: VHH ERB-1A12 (VHH)
VHH: EVQLVESGGGLVQAGGSLRLSCAASGRTFSRYFMGWFRQAPGKEREFVAGIIWSGTRTYYVDSVKGRFTISRDNDKRMVYLQMNSLKPEDTAVYYCAAYKEYYGTPAQLYAAASYDYWGQGTQVTVSS
notes: also called VH ERB-1A12; not shown: C-terminal FLAG and His-tag from vector pMEK222
binding result [2]: binds

B3: VHH ERB-1B11 (VHH)
VHH: EVQLVESGGGLVQAGGSLRLTCAASGRTFRRSNMAWFRQPPGKERDFVAAIKWSGSSTNYADSVKGRFTISRDNDKNTVYLQMNVLKPEDTGVYYCAQESSLYSNYLPVVSSAYDYWGQGTQVTVSS
notes: also called VH ERB-1 B11; not shown: C-terminal FLAG and His-tag from vector pMEK222
binding result [3]: binds

B4: VHH ERB-1F1 (VHH)
VHH: EVQLVESGGGLVQAGDSLRLSCAASGRTFSRVTMGWFRQAPGKEREFVAGISWSGTRTDYPDSVKGRFTVSRDNAKKTMWLQMSSLRPEDTAVYHCAADSTLYGSAISNNREAYAYWGQGTQVTVSS
notes: also called VH ERB-1F1; not shown: C-terminal FLAG and His-tag from vector pMEK222
binding result [4]: binds

B5: VHH ERB-1F2 (VHH)
VHH: EVQLVESGGGLVQVGGSLRLSCAASGRTFRRNTIGWFRQAPGKEREFVAAISWSGTRTKYADPVKGRFTISRDNDKNTAYLQMNTLKPDDTAVYYCAADGALYGSDVSGLARVYDYWGQGTQVTVSS
notes: also called VH ERB-1F2; not shown: C-terminal FLAG and His-tag from vector pMEK222
binding result [4]: binds

B6: VHH ERB-1H4 (VHH)
VHH: EVQLVESGGGLVQAGGSLRLSCVASGRTFSRYTVGWFRQAPGKEREFVAGISWSGSRTSYADSVKGRFTISRDNDKTTGYLQMNSLKPEDTAVYYCAAITKLYENNIPRSVSDYALWGQGTQVTVSS
notes: also called VH ERB-1H4; not shown: C-terminal FLAG and His-tag from vector pMEK222
binding result [4]: binds

B7: VHH ERB-1D7 (VHH)
VHH: KVQLVESGGGLVQAGGSLRLSCAASGRTFSRRGMGWFRQAPGKEREFVATIKWSGTSTDYADSVKGRFTISRDNAKNTVYLQMNNLQPEDTAVYYCAADRQLYRDGYVPLNEYEDWGQGTQVTVSS
notes: also called VH ERB-1D7; not shown: C-terminal FLAG and His-tag from vector pMEK222
binding result [4]: binds

B8: ERB-1G6: single domain antibody (VHH) selected on His rBCLA, SEQ ID NO: 57 (protein)
VHH: B1 VHH
modifications: Synthetic VHH ERB-1G6
apparent affinity to immobilized His rBCLA (His rBCLA): subnanomolar; also recorded: very good

B9: ERB-1B11: single domain antibody (VHH) selected on His rBCLA, SEQ ID NO: 58 (protein)
VHH: B3 VHH
modifications: Synthetic VHH ERB-1B11
apparent affinity to immobilized His rBCLA (His rBCLA): subnanomolar; also recorded: very good

B10: ERB-1A12: single domain antibody (VHH) selected on His rBCLA, SEQ ID NO: 59 (protein)
VHH: B2 VHH
modifications: Synthetic VHH ERB-1A12
apparent affinity to immobilized His rBCLA (His rBCLA): subnanomolar; also recorded: very good

B11: ERB-1F1: single domain antibody (VHH) selected on His rBCLA, SEQ ID NO: 60 (protein)
VHH: B4 VHH
modifications: Synthetic VHH ERB-1F1
apparent affinity to immobilized His rBCLA (His rBCLA): low nanomolar

B12: ERB-1F2: single domain antibody (VHH) selected on His rBCLA, SEQ ID NO: 61 (protein)
VHH: B5 VHH
modifications: Synthetic VHH ERB-1F2
apparent affinity to immobilized His rBCLA (His rBCLA): low nanomolar

B13: ERB-1H4: single domain antibody (VHH) selected on His rBCLA, SEQ ID NO: 62 (protein)
VHH: B6 VHH
modifications: Synthetic VHH ERB-1H4
apparent affinity to immobilized His rBCLA (His rBCLA): molar

B14: ERB-1D7: single domain antibody (VHH) selected on His rBCLA, SEQ ID NO: 63 (protein)
VHH: B7 VHH
modifications: Synthetic VHH ERB-1D7
apparent affinity to immobilized His rBCLA (His rBCLA): molar
